Results: patent US20230287113A1 (NANTBIO, published 2023)

T1: human TIM-3 (T-cell immunoglobulin mucin receptor 3) (human, UniProt Q8TDQ0 22-202, limits assumed)
T1 sequence (looked up): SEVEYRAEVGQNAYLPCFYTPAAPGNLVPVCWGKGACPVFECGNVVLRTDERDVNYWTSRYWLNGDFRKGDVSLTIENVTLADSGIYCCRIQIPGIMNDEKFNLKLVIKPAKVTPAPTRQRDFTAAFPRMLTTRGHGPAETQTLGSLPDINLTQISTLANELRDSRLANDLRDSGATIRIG


Tests used:
[1] = target: T1, human TIM-3 (T-cell immunoglobulin …); test: ratio of KD at 37 C to KD at 25 C, SPR or Octet
Description: (§1) In one typical example, the inventors prepared antibodies using the above HC and LC sequences with matching preceding numbers and tested the so prepared antibodies for TIM3 binding. […] All values are ×10⁻⁹M. anti-TIM-3 IgG1 antibodies were captured on the chip surface using anti-human Fc antibody (SPR) or AHC sensor (Octet), and human TIM-3 was the analyte.

[2] = target: T1, human TIM-3 (T-cell immunoglobulin …); test: SPR (Pioneer FE) or Octet (Red96e), IgG1 captured by anti-human Fc / AHC sensor, human TIM-3 analyte, 25 C
Description: as §1

[3] = target: T1, human TIM-3 (T-cell immunoglobulin …); test: SPR (Pioneer FE) or Octet (Red96e), IgG1 captured by anti-human Fc / AHC sensor, human TIM-3 analyte, 37 C
Description: as §1

Binder | KD difference between 25° C. and 37° C. (fold) [1] [fold] | Kd [2] [nM] | Kd [3] [nM]
anti-TIM-3 IgG1 antibody 64-15 (antibody, V domains shown, human IgG1; also called aTIM-3 IgG1 64-15) VH: EVQLVESGGGLVQPGGSLRLSCAASGFTFSSYYMHWVRQAPGKGLEWVSGISGSGGSTYYADSVKGRFTISRDNSKNTLYLQMNSLRAEDTAVYYCARGRGAWPFTRVVAFDVWGQGTLVTVSS VL: not shown | 7.61 | 0.71 | 5.4
anti-TIM-3 IgG1 antibody 64-6 (antibody, V domains shown, human IgG1; also called aTIM-3 IgG1 64-6) VH: EVQLVESGGGLVQPGGSLRLSCAASGFTFSRYAMHWVRQAPGKGLEWVSAISGSGGYTYYADSVKGRFTISRDNSKNTLYLQMNSLRAEDTAVYYCARDRHWVLSAFDVWGQGTLVTVSS VL: not shown | 5.43 | 0.46 | 2.5
anti-TIM-3 IgG1 antibody 66-6 (antibody, V domains shown, human IgG1; The printed HC begins with M before EVQL; also called aTIM-3 IgG1 66-6) VH: EVQLVESGGGLVQPGGSLRLSCAASGFTFSKYAMHWVRQAPGKGLEWVSAISGSGGSTYYADSVKGRFTISRDNSKNTLYLQMNSLRAEDTAVYYCARDLDYRFSGFDVWGQGTLVTVSS VL: DIQMTQSPSSLSASVGDRVTITCQASQDISNYLNWYQQKPGKAPKLLIYDASNLETGVPSRFSGSGSGTDFTFTISSLQPEDIATYYCQQFAAIPLTFGQGTKVEIKR | 4.15 | 1.69 | 7.01
anti-TIM-3 IgG1 antibody 64-39 (antibody, V domains shown, human IgG1; The printed HC begins with M before EVQL; also called aTIM-3 IgG1 64-39) VH: EVQLVESGGGLVQPGGSLRLSCAASGFTFSRYAMHWVRQAPGKGLEWVSGISGSGGGTYYADSVKGRFTISRDNSKNTLYLQMNSLRAEDTAVYYCARDLDYRVSGFDVWGQGTLVTVSS VL: not shown | 4.18 | 1.53 | 6.39
anti-TIM-3 IgG1 antibody 64-32 (antibody, V domains shown, human IgG1; The printed HC begins with M before EVQL; also called aTIM-3 IgG1 64-32) VH: EVQLVESGGGLVQPGGSLRLSCAASGFTFSKYAMHWVRQAPGKGLEWVSAISGSGGYTYYADSVKGRFTISRDNSKNTLYLQMNSLRAEDTAVYYCARDLDFRIVGFDVWGQGTLVTVSS VL: DIQMTQSPSSLSASVGDRVTITCQASQDISNYLNWYQQKPGKAPKLLIYDASNLETGVPSRFSGSGSGTDFTFTISSLQPEDIATYYCQQFNTVPLTFGQGTKVEIKR | 2.36 | 0.39 | 0.92
anti-TIM-3 IgG1 antibody 64-31 (antibody, V domains shown, human IgG1; The printed HC begins with M before EVQL; also called aTIM-3 IgG1 64-31) VH: EVQLVESGGGLVQPGGSLRLSCAASGFTFSAYAMHWVRQAPGKGLEWVSAINGNGGRTYYADSVKGRFTISRDNSKNTLYLQMNSLRAEDTAVYYCARDLTRTVPFAFDVWGQGTLVTVSS VL: not shown | 3.51 | 10.4 | 36.5
